Key:
Assay in all cases: flow cytometry, transfected 293T cells
[1] = molecular target: CHIKV E2-E1 envelope glycoproteins (strain S27), E2 mutant D117A (chikungunya virus strain S27) (UniProt Q8JUX5)
[2] = molecular target: CHIKV E2-E1 envelope glycoproteins (strain S27), E2 mutant D63A (chikungunya virus strain S27) (UniProt Q8JUX5)
[3] = molecular target: CHIKV E2-E1 envelope glycoproteins (strain S27), E2 mutant I101A (chikungunya virus strain S27) (UniProt Q8JUX5)
[4] = molecular target: CHIKV E2-E1 envelope glycoproteins (strain S27), E2 mutant I37A (chikungunya virus strain S27) (UniProt Q8JUX5)
[5] = molecular target: CHIKV E2-E1 envelope glycoproteins (strain S27), E2 mutant G108A (chikungunya virus strain S27) (UniProt Q8JUX5)
[6] = molecular target: CHIKV E2-E1 envelope glycoproteins (strain S27), E2 mutant G55A (chikungunya virus strain S27) (UniProt Q8JUX5)
[7] = molecular target: CHIKV E2-E1 envelope glycoproteins (strain S27), E2 mutant W64A (chikungunya virus strain S27) (UniProt Q8JUX5)
[8] = molecular target: CHIKV E2-E1 envelope glycoproteins (strain S27), E2 mutant T94A (chikungunya virus strain S27) (UniProt Q8JUX5)
[9] = molecular target: CHIKV E2-E1 envelope glycoproteins (strain S27), E2 mutant D59A (chikungunya virus strain S27) (UniProt Q8JUX5)
[10] = molecular target: CHIKV E2-E1 envelope glycoproteins (strain S27), E2 mutant S88A (chikungunya virus strain S27) (UniProt Q8JUX5)
[11] = molecular target: CHIKV E2-E1 envelope glycoproteins (strain S27), E2 mutant E35A (chikungunya virus strain S27) (UniProt Q8JUX5)
[12] = molecular target: CHIKV E2-E1 envelope glycoproteins (strain S27), E2 mutant T45A (chikungunya virus strain S27) (UniProt Q8JUX5)
[13] = molecular target: CHIKV E2-E1 envelope glycoproteins (strain S27), E2 mutant T116A (chikungunya virus strain S27) (UniProt Q8JUX5)
[14] = molecular target: CHIKV E2-E1 envelope glycoproteins (strain S27), E2 mutant R119A (chikungunya virus strain S27) (UniProt Q8JUX5)
[15] = molecular target: CHIKV E2-E1 envelope glycoproteins (strain S27), E2 mutant H130A (chikungunya virus strain S27) (UniProt Q8JUX5)
[16] = molecular target: CHIKV E2-E1 envelope glycoproteins (strain S27), E2 mutant I48A (chikungunya virus strain S27) (UniProt Q8JUX5)
[17] = molecular target: CHIKV E2-E1 envelope glycoproteins (strain S27), E2 mutant G114A (chikungunya virus strain S27) (UniProt Q8JUX5)
[18] = molecular target: CHIKV E2-E1 envelope glycoproteins (strain S27), E2 mutant C125A (chikungunya virus strain S27) (UniProt Q8JUX5)
[19] = molecular target: CHIKV E2-E1 envelope glycoproteins (strain S27), E2 mutant T65A (chikungunya virus strain S27) (UniProt Q8JUX5)
[20] = molecular target: CHIKV E2-E1 envelope glycoproteins (strain S27), E2 mutant R86A (chikungunya virus strain S27) (UniProt Q8JUX5)
[21] = molecular target: CHIKV E2-E1 envelope glycoproteins (strain S27), E2 mutant L34A (chikungunya virus strain S27) (UniProt Q8JUX5)
[22] = molecular target: CHIKV E2-E1 envelope glycoproteins (strain S27), E2 mutant T110A (chikungunya virus strain S27) (UniProt Q8JUX5)
[23] = molecular target: CHIKV E2-E1 envelope glycoproteins (strain S27), E2 mutant L111A (chikungunya virus strain S27) (UniProt Q8JUX5)
[24] = molecular target: CHIKV E2-E1 envelope glycoproteins (strain S27), E2 mutant M70A (chikungunya virus strain S27) (UniProt Q8JUX5)
[25] = molecular target: CHIKV E2-E1 envelope glycoproteins (strain S27), E2 mutant A89S (chikungunya virus strain S27) (UniProt Q8JUX5)
[26] = molecular target: CHIKV E2-E1 envelope glycoproteins (strain S27), E2 mutant V50A (chikungunya virus strain S27) (UniProt Q8JUX5)
[27] = molecular target: CHIKV E2-E1 envelope glycoproteins (strain S27), E2 mutant L83A (chikungunya virus strain S27) (UniProt Q8JUX5)
[28] = molecular target: CHIKV E2-E1 envelope glycoproteins (strain S27), E2 mutant C105A (chikungunya virus strain S27) (UniProt Q8JUX5)
[29] = molecular target: CHIKV E2-E1 envelope glycoproteins (strain S27), E2 mutant N72A (chikungunya virus strain S27) (UniProt Q8JUX5)
[30] = molecular target: CHIKV E2-E1 envelope glycoproteins (strain S27), E2 mutant Q49A (chikungunya virus strain S27) (UniProt Q8JUX5)
[31] = molecular target: CHIKV E2-E1 envelope glycoproteins (strain S27), E2 mutant V32A (chikungunya virus strain S27) (UniProt Q8JUX5)
[32] = molecular target: CHIKV E2-E1 envelope glycoproteins (strain S27), E2 mutant I74A (chikungunya virus strain S27) (UniProt Q8JUX5)
[33] = molecular target: CHIKV E2-E1 envelope glycoproteins (strain S27), E2 mutant I54A (chikungunya virus strain S27) (UniProt Q8JUX5)

Substance	Binding Reactivity (% WT) [1] [% WT]	Binding Reactivity (% WT) [2] [% WT]	Binding Reactivity (% WT) [3] [% WT]	Binding Reactivity (% WT) [4] [% WT]	Binding Reactivity (% WT) [5] [% WT]	Binding Reactivity (% WT) [6] [% WT]	Binding Reactivity (% WT) [7] [% WT]	Binding Reactivity (% WT) [8] [% WT]	Binding Reactivity (% WT) [9] [% WT]	Binding Reactivity (% WT) [10] [% WT]	Binding Reactivity (% WT) [11] [% WT]	Binding Reactivity (% WT) [12] [% WT]	Binding Reactivity (% WT) [13] [% WT]	Binding Reactivity (% WT) [14] [% WT]	Binding Reactivity (% WT) [15] [% WT]	Binding Reactivity (% WT) [16] [% WT]	Binding Reactivity (% WT) [17] [% WT]	Binding Reactivity (% WT) [18] [% WT]	Binding Reactivity (% WT) [19] [% WT]	Binding Reactivity (% WT) [20] [% WT]	other results
CHIKV mAb IM-CKV065 (antibody)	70.9	64.8	6.3	12.1	34.8	86.2	86.3	102	72.8	101	11.7	62.4	103	120	104	0.3	35.2	-2.9	98.4	102	Binding Reactivity (% WT) [21]: 16.3 % WT; Binding Reactivity (% WT) [22]: 72.1 % WT; Binding Reactivity (% WT) [23]: 6.6 % WT; Binding Reactivity (% WT) [24]: 104 % WT; Binding Reactivity (% WT) [25]: 111 % WT; Binding Reactivity (% WT) [26]: 48.2 % WT; Binding Reactivity (% WT) [27]: 6.2 % WT; Binding Reactivity (% WT) [28]: -2.9 % WT; Binding Reactivity (% WT) [29]: 103 % WT; Binding Reactivity (% WT) [30]: 37.3 % WT; Binding Reactivity (% WT) [31]: 33.3 % WT; Binding Reactivity (% WT) [32]: 0.3 % WT; Binding Reactivity (% WT) [33]: 80.8 % WT
Mxra8-Fc (mouse Mxra8 extracellular domain fused to mouse IgG2b Fc) (Fc fusion)	-0.3	85	23.7	36.2	76.7	101	17.7	99.7	78.9	94	11	81.2	31.2	0	101	11.1	79.1	-0.2	68.9	91.5	Binding Reactivity (% WT) [21]: 28.3 % WT; Binding Reactivity (% WT) [22]: 99.6 % WT; Binding Reactivity (% WT) [23]: 25.7 % WT; Binding Reactivity (% WT) [24]: 110 % WT; Binding Reactivity (% WT) [25]: 102 % WT; Binding Reactivity (% WT) [26]: 67.8 % WT; Binding Reactivity (% WT) [27]: 17.3 % WT; Binding Reactivity (% WT) [28]: -0.1 % WT; Binding Reactivity (% WT) [29]: 128 % WT; Binding Reactivity (% WT) [30]: 56.8 % WT; Binding Reactivity (% WT) [31]: 47.1 % WT; Binding Reactivity (% WT) [32]: 44.8 % WT; Binding Reactivity (% WT) [33]: 104 % WT
